Laboratory results reported in the nanobody polyreactivity screen of Harvey et al. (2022).

Experiment: yeast display, Sf9 membrane polyspecificity reagent, FACS + sequencing; frameworks hold sequencing errors
Summary of the method: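 Using colony PCR, genes from sorted yeast display clones were amplified, then sequenced on MiSeq at 2 × 250 and filtered by CDR length. The clones had been stained with 10% biotinylated, detergent-solubilized Sf9 membrane reagent for 1 hour at 4 °C and sorted by FACS into low and high (top ~1%) gates on anti-HA and streptavidin fluorescence. Polyreactivity labels come from the gate of origin.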

| Sequence | polyreactivity (PSR sort gate) |
| --- | --- |
| QVQLVESGGGLVQAGGSLRLSCAASGSTFDSYAMGWSRQAPGKERELVAAISYSGGSTYYADSVKGRFTISRDNAKNTVYLQMNRLKPEDTAVYYCAASSYNHKRYPSPYDYWGQGTQVTVSS | high polyreactivity |
| QVQLVESGGGLVQAGGSLRLSCAASGSTFDSYAMGWYRQAPGKERELVAAISYNGSSTYYADSVKGRFTISRDNAKNTVYLQMNSLKPEDTAVYYCAAAPGFSAGHHDYWGQGTQVTVSS | low polyreactivity |
| QVQLVESGGGLVQAGGSLRLSCAASGSTFDSYAMGWYRQAPGKERELVASITSNDGSTSYADSVKGRFTISRDNAKNTVYLQMNSLKPEDTAVYYCATTFQYYWFSLYDYWGQGTQVTVSS | low polyreactivity |
| QVQLVESGGGLVQAGGSLRLSCAASGSTFDSYGMGWYRLAPGKERELVAPSTSRGASTNYADSVKGRFTISRDTAKNTVYLQMTSLKPEDTAVYYCNREVPWWLYKYDGHDYWGQATQVTVSS | low polyreactivity |
| QVQLVESGGGLVQAGGSLRLSCAASGSTFDTNAMGWYRQAPGKERELVATITSIGGSTYADSVKGRFTISRDNAKNTVYLQMNSLKPEDTAVYYCATDYVEIDYDYDYWGQGTQVTVSS | low polyreactivity |
| QVQLVESGGGLVQAGGSLRLSCAASGSTFDVNAMGWYRPAPGKERELVAAISWNSGSTYYADSVKGRFTISRDNAKNTVYLQLNSLKPEDTAVYYCAATYGTGRRSKYGYWGQGTQVTVSS | high polyreactivity |
| QVQLVESGGGLVQAGGSLRLSCAASGSTFDYNAMGCYRQAPRKERELDAVIRSGGTTYYADSVKGRFTISRVNAKNTVYLQMNSLKPEDTAVYYCAASFQRRAGSYGGSRRYGYLGQGTQVTVSS | high polyreactivity |
| QVQLVESGGGLVQAGGSLRLSCAASGSTFDYNAMGWYRQAPGKERELVAAISRGGNTDYADSVKGRFTISRDNAKNSVYLQMNSLKPEDTAVYYCAADALLEWFDVAYFAYEYWGQGTQVTVSS | low polyreactivity |
| QVQLVESGGGLVQAGGSLRLSCAASGSTFDYNTMGWYRQAPGKERELVAAISWRGVSTYYADSVKGRFTISRDNAKNTVYLQMNSLKTEDTAVYYCNAVHHYPEHIGGGYWGQGTQVTVSS | low polyreactivity |
| QVQLVESGGGLVQAGGSLRLSCAASGSTFDYNTMGWYRQAPGKERELVAGIRSSGARTYYADSVKGRFTISRDNAKNTVYLQMNSLKPEDTAVYYCAKTDGFYRGYGYWGQGTQVTVSS | low polyreactivity |
| QVQLVESGGGLVQAGGSLRLSCAASGSTFDYYAMGWYREAPGKERELVAGITSDGSTYYADSVKGRFTISRDNAKNTVYLQMNSLKPEDTAVYYCNKAPYHWPYEYWGQGTQVTVSS | low polyreactivity |
| QVQLVESGGGLVQAGGSLRLSCAASGSTFDYYAMGWYRQAPGKERELVAAISSGGSTNYADSVKGRFTISRDNAKNTVYLQMNSLKPEDTAVYYCAAVALWDYKFFYYLLYDYWGQGTQVTVSS | low polyreactivity |
| QVQLVESGGGLVQAGGSLRLSCAASGSTFDYYAMGWYRQAPGKERELVAAISSSGSSTYYADSVKGRFTISRDNAKNTVYLQMNSLKPEDTAVYYCNALSNVPYDYWGQGTQVTVSS | low polyreactivity |
| QVQLVESGGGLVQAGGSLRLSCAASGSTFDYYAMGWYRQAPVKERELVAAITGTGGSTYYADSVKGRFTISRDNAKNTVYLQINRLKPEDTAVYYCAADTYLGWSYYWGQGTQVTVSS | high polyreactivity |
| QVQLVESGGGLVQAGGSLRLSCAASGSTFDYYTMGWYRQAPGKERELVAAISRSGGSTRYADSVKGRFTISRDNAKNTVYLQMNSLKPEYTAVYYCAAKLWRYYHYDYWGQGTQVTVSS | low polyreactivity |
| QVQLVESGGGLVQAGGSLRLSCAASGSTFDYYVMGWYRQAPGKERELVAAISLSGGSTYYADSVKGRFTISRDNAKNTVYLQMNSLKPEHTAVYYCAAQTKPASRVTYYWYYYWGQGTQVTVSS | high polyreactivity |
| QVQLVESGGGLVQAGGSLRLSCAASGSTFEAYAMGWYRQAPGKERELVAAITRGSTYYADSVKGRFTISRDNAKNTVYLQMNSLKPEDTAVYYCNVDYSYNSGYDYWGQGTQVTVSS | high polyreactivity |
